The target in experiment [1] is JK16. Description: FP.
The target in experiment [2] is JK18. Put plainly: FP.
Experiment [3] concerns the target JK16. Description: FP; direct titration.
Experiment [4] concerns the target JK18. Description: FP; direct titration.

B1: c-Jun N-terminal kinase 3 (enzyme)
chain: MSLHFLYYCSEPTLDVKIAFCQGFDKQVDVSYIAKHYNMSKSKVDNQFYSVEVGDSTFTVLKRYQNLKPIGSGAQGIVCAAYDAVLDRNVAIKKLSRPFQNQTHAKRAYRELVLMKCVNHKNIISLLNVFTPQKTLEEFQDVYLVMELMDANLCQVIQMELDHERMSYLLYQMLCGIKHLHSAGIIHRDLKPSNIVVKSDCTLKILDFGLARTAGTSFMMTPYVVTRYYRAPEVILGMGYKENVDIWSVGCIMGEMVRHKILFPGRDYIDQWNKVIEQLGTPCPEFMKKLQPTVRNYVENRPKYAGLTFPKLFPDSLFPADSEHNKLKASQARDLLSKMLVIDPAKRISVDDALQHPYINVWYDPAEVEAPPPQIYDKQLDEREHTIEEWKELIYKEVMNSEEKTKNGVVKGQPSPSGAAVNSSESLPPSSSVNDISSMSTDQTLASDTDSSLEASAGPLGCCR
Consider B1, for which the equilibrium dissociation constant (Kd) came out at 6.7 µM in experiment [1], 4.1 µM in experiment [2], 6.7 µM in experiment [3] and 4.1 µM in experiment [4].

For orientation: Kd means the free concentration of one partner at which half of the binding sites on the other are occupied at equilibrium, for simple one-to-one binding. Read a low Kd as a tighter complex.

The values above are taken from PMC6198510 (2018).
